Data as given in patent US20220332795A1 (ARO BIOTHERAPEUTICS, published 2022).
Positions count from the first letter of the chain named.

B1: SEQ ID NO 244 (designed binder, not shown: small tags and cut ends)
chain: MLPAPKNLVVSRVTEDSARLSWTAPDAAFDSFYIAYAEPRPDGEAISLQVPGSERSYDLTGLKPGTEYSVLIHGVKGGLLSSPLGAHFTT
B2: SEQ ID NO 258 (designed binder, not shown: small tags and cut ends)
chain: B1 chain with S47L, Q49E, G85V, H87F
B3: SEQ ID NO 246 (designed binder, not shown: small tags and cut ends)
chain: B1 chain with S47Q, Q49H, G85Y, H87F
B4: SEQ ID NO 257 (designed binder, not shown: small tags and cut ends)
chain: B1 chain with S47Q, Q49G, G85R, H87Y
B5: SEQ ID NO 236 (designed binder, not shown: small tags and cut ends)
chain: B1 chain with S47L, G85D, H87E
B6: SEQ ID NO 233 (designed binder, not shown: small tags and cut ends)
chain: B1 chain with S47Q, Q49F, G85K, H87Y
B7: SEQ ID NO 230 (designed binder, not shown: small tags and cut ends)
chain: B1 chain with S47W, Q49L, G85V, H87F
B8: SEQ ID NO 229 (designed binder, not shown: small tags and cut ends)
chain: B1 chain with S47Q, Q49L, G85V
B9: SEQ ID NO 250 (designed binder, not shown: small tags and cut ends)
chain: B1 chain with S47L, Q49R, G85Y, H87K
B10: SEQ ID NO 253 (designed binder, not shown: small tags and cut ends)
chain: B1 chain with S47I, Q49H, G85D, H87Y
B11: SEQ ID NO 255 (designed binder, not shown: small tags and cut ends)
chain: MLPAPKNLVVSRVTEDSARLSWTAPDAAFDSFFIGYLEPQPPGEAILLFVPGSERSYDLTGLKPGTEYNVTIQGVKGGFPSTPLSASFTT
B12: SEQ ID NO 217 (designed binder, not shown: small tags and cut ends)
chain: B1 chain with S47I, Q49E, G85R, H87V
B13: SEQ ID NO 224 (designed binder, not shown: small tags and cut ends)
chain: B1 chain with S47L, Q49R, G85V, H87E
B14: SEQ ID NO 228 (designed binder, not shown: small tags and cut ends)
chain: B1 chain with S47V, Q49R, G85A, H87S
B15: SEQ ID NO 219 (designed binder, not shown: small tags and cut ends)
chain: B1 chain with Q49K, G85E, H87I
B16: SEQ ID NO 237 (designed binder, not shown: small tags and cut ends)
chain: B1 chain with S47V, Q49A, G85Y, H87S
B17: SEQ ID NO 252 (designed binder, not shown: small tags and cut ends)
chain: B1 chain with S47V, Q49H, G85D, H87F
B18: SEQ ID NO 212 (designed binder, not shown: small tags and cut ends)
chain: B1 chain with S47W, Q49A, G85H, H87Q
B19: SEQ ID NO 234 (designed binder, not shown: small tags and cut ends)
chain: B1 chain with S47V, Q49V, G85S, H87I
B20: SEQ ID NO 215 (designed binder, not shown: small tags and cut ends)
chain: B1 chain with S47V, Q49W, G85I, H87E

The binders below were run against T1, human CD71 extracellular domain (human, UniProt P02786 89-760, biotinylated) (assay: solution ELISA screen, signal ratio to HSA control).
T1 construct: extracellular domain; also called hCD71; huCD71 ECD
T1 sequence (P02786 other isoform, or with tags, fused parts or gaps): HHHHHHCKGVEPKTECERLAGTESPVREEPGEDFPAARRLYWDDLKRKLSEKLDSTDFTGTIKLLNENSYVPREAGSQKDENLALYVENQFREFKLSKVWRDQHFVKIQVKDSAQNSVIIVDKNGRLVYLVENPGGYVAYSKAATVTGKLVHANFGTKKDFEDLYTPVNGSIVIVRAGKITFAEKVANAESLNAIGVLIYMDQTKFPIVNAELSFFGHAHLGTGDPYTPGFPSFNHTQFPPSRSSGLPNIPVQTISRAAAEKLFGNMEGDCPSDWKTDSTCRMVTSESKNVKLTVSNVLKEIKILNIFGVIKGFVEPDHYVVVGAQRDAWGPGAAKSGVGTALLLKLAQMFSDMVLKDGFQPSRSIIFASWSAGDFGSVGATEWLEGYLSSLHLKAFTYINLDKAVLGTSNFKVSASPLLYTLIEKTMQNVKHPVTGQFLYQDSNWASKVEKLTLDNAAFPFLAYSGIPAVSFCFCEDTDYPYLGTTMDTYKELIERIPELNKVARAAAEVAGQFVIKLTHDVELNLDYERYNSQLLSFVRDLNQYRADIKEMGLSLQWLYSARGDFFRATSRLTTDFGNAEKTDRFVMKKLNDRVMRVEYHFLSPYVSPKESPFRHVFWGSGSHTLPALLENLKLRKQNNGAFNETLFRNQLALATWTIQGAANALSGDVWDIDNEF

**Q.** For B1, which “hCD71:HSA” value is on record?
**A.** 97.1 ratio

**Q.** How did the “hCD71:HSA” value turn out when B2 was run?
**A.** 204 ratio

**Q.** For B3, which “hCD71:HSA” value is on record?
**A.** 21.3 ratio

**Q.** B4 was tested. Which “hCD71:HSA” value did it give?
**A.** 26.9 ratio

**Q.** Which “hCD71:HSA” value does the source give for B5 here?
**A.** 262 ratio

**Q.** How did the “hCD71:HSA” value turn out when B6 was run?
**A.** 35.1 ratio

**Q.** B7 was tested. Which “hCD71:HSA” value did it give?
**A.** 34.4 ratio

**Q.** With B8 as the binder, how does the “hCD71:HSA” value read?
**A.** 93.4 ratio

**Q.** B9 was tested. Which “hCD71:HSA” value did it give?
**A.** 15 ratio

**Q.** How did the “hCD71:HSA” value turn out when B10 was run?
**A.** 92 ratio

**Q.** Which “hCD71:HSA” value does the source give for B11 here?
**A.** 49.1 ratio

**Q.** How did the “hCD71:HSA” value turn out when B12 was run?
**A.** 214 ratio

**Q.** B13 was tested. Which “hCD71:HSA” value did it give?
**A.** 136 ratio

**Q.** With B14 as the binder, how does the “hCD71:HSA” value read?
**A.** 131 ratio

**Q.** For B15, which “hCD71:HSA” value is on record?
**A.** 38.8 ratio

**Q.** With B16 as the binder, how does the “hCD71:HSA” value read?
**A.** 165 ratio

**Q.** B17 was tested. Which “hCD71:HSA” value did it give?
**A.** 59.6 ratio

**Q.** For B18, which “hCD71:HSA” value is on record?
**A.** 26.8 ratio

**Q.** B19 was tested. Which “hCD71:HSA” value did it give?
**A.** 216 ratio

**Q.** B20 was tested. Which “hCD71:HSA” value did it give?
**A.** 90.4 ratio

The binders below were run against T2, CD71 apical domain (human, UniProt P02786 189-383, limits assumed) (assay: solution ELISA screen, signal ratio to HSA control).
T2 construct: domain: apical domain
T2 sequence (P02786 189-383 limits assumed): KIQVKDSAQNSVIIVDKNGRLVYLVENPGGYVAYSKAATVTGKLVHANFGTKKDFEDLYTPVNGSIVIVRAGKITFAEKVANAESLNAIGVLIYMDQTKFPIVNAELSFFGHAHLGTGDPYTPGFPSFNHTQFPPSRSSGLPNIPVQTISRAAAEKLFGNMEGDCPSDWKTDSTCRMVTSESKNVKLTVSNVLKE

**Q.** With B1 as the binder, how does the “apical domain:HSA” value read?
**A.** 329 ratio

**Q.** B2 was tested. Which “apical domain:HSA” value did it give?
**A.** 277 ratio

**Q.** For B3, which “apical domain:HSA” value is on record?
**A.** 1.8 ratio

**Q.** How did the “apical domain:HSA” value turn out when B4 was run?
**A.** 162 ratio

**Q.** Which “apical domain:HSA” value does the source give for B5 here?
**A.** 477 ratio

**Q.** B6 was tested. Which “apical domain:HSA” value did it give?
**A.** 255 ratio

**Q.** How did the “apical domain:HSA” value turn out when B7 was run?
**A.** 191 ratio

**Q.** For B8, which “apical domain:HSA” value is on record?
**A.** 374 ratio

**Q.** With B9 as the binder, how does the “apical domain:HSA” value read?
**A.** 114 ratio

**Q.** For B10, which “apical domain:HSA” value is on record?
**A.** 191 ratio

**Q.** For B11, which “apical domain:HSA” value is on record?
**A.** 69.3 ratio

**Q.** B12 was tested. Which “apical domain:HSA” value did it give?
**A.** 420 ratio

**Q.** How did the “apical domain:HSA” value turn out when B13 was run?
**A.** 261 ratio

**Q.** B14 was tested. Which “apical domain:HSA” value did it give?
**A.** 238 ratio

**Q.** Which “apical domain:HSA” value does the source give for B15 here?
**A.** 418 ratio

**Q.** How did the “apical domain:HSA” value turn out when B16 was run?
**A.** 253 ratio

**Q.** Which “apical domain:HSA” value does the source give for B17 here?
**A.** 104 ratio

**Q.** Which “apical domain:HSA” value does the source give for B18 here?
**A.** 292 ratio

**Q.** With B19 as the binder, how does the “apical domain:HSA” value read?
**A.** 338 ratio

**Q.** For B20, which “apical domain:HSA” value is on record?
**A.** 261 ratio

These binders were tested against T1, human CD71 extracellular domain (assay: solution ELISA screen (luminescence)).

**Q.** B1 was tested. Which RLU did it give?
**A.** 1.75e+06 RLU

**Q.** With B2 as the binder, how does the RLU read?
**A.** 5.4e+06 RLU

**Q.** How did the RLU turn out when B3 was run?
**A.** 548000 RLU

**Q.** For B4, which RLU is on record?
**A.** 802000 RLU

**Q.** Which RLU does the source give for B5 here?
**A.** 4.07e+06 RLU

**Q.** For B6, which RLU is on record?
**A.** 772000 RLU

**Q.** How did the RLU turn out when B7 was run?
**A.** 1.1e+06 RLU

**Q.** B8 was tested. Which RLU did it give?
**A.** 1.44e+06 RLU

**Q.** For B9, which RLU is on record?
**A.** 724000 RLU

**Q.** B10 was tested. Which RLU did it give?
**A.** 3.47e+06 RLU

**Q.** With B11 as the binder, how does the RLU read?
**A.** 5.02e+06 RLU

**Q.** For B12, which RLU is on record?
**A.** 3.48e+06 RLU

**Q.** How did the RLU turn out when B13 was run?
**A.** 3.55e+06 RLU

**Q.** Which RLU does the source give for B14 here?
**A.** 3.88e+06 RLU

**Q.** With B15 as the binder, how does the RLU read?
**A.** 460000 RLU

**Q.** B16 was tested. Which RLU did it give?
**A.** 4.58e+06 RLU

**Q.** How did the RLU turn out when B17 was run?
**A.** 4.34e+06 RLU

**Q.** Which RLU does the source give for B18 here?
**A.** 467000 RLU

**Q.** How did the RLU turn out when B19 was run?
**A.** 4.51e+06 RLU

**Q.** With B20 as the binder, how does the RLU read?
**A.** 2.02e+06 RLU

What follows are binders tested against T2, CD71 apical domain (assay: solution ELISA screen (luminescence)).

**Q.** Which RLU does the source give for B1 here?
**A.** 5.93e+06 RLU

**Q.** For B2, which RLU is on record?
**A.** 7.34e+06 RLU

**Q.** Which RLU does the source give for B3 here?
**A.** 47500 RLU

**Q.** For B4, which RLU is on record?
**A.** 4.84e+06 RLU

**Q.** How did the RLU turn out when B5 was run?
**A.** 7.41e+06 RLU

**Q.** B6 was tested. Which RLU did it give?
**A.** 5.61e+06 RLU

**Q.** With B7 as the binder, how does the RLU read?
**A.** 6.11e+06 RLU

**Q.** Which RLU does the source give for B8 here?
**A.** 5.77e+06 RLU

**Q.** B9 was tested. Which RLU did it give?
**A.** 5.54e+06 RLU

**Q.** B10 was tested. Which RLU did it give?
**A.** 7.21e+06 RLU

**Q.** Which RLU does the source give for B11 here?
**A.** 7.08e+06 RLU

**Q.** How did the RLU turn out when B12 was run?
**A.** 6.81e+06 RLU

**Q.** With B13 as the binder, how does the RLU read?
**A.** 6.82e+06 RLU

**Q.** B14 was tested. Which RLU did it give?
**A.** 7.04e+06 RLU

**Q.** For B15, which RLU is on record?
**A.** 4.95e+06 RLU

**Q.** Which RLU does the source give for B16 here?
**A.** 7.01e+06 RLU

**Q.** With B17 as the binder, how does the RLU read?
**A.** 7.57e+06 RLU

**Q.** For B18, which RLU is on record?
**A.** 5.09e+06 RLU

**Q.** For B19, which RLU is on record?
**A.** 7.04e+06 RLU

**Q.** Which RLU does the source give for B20 here?
**A.** 5.84e+06 RLU
